Test results: article PMC9135631 (2022)
Residue numbers refer to the chain shown, from its start.

Assays:
[1] = target: T1, Latrophilin-3 ADHD-related variant A247S (Lphn3^A247S) (human)
T1 chain: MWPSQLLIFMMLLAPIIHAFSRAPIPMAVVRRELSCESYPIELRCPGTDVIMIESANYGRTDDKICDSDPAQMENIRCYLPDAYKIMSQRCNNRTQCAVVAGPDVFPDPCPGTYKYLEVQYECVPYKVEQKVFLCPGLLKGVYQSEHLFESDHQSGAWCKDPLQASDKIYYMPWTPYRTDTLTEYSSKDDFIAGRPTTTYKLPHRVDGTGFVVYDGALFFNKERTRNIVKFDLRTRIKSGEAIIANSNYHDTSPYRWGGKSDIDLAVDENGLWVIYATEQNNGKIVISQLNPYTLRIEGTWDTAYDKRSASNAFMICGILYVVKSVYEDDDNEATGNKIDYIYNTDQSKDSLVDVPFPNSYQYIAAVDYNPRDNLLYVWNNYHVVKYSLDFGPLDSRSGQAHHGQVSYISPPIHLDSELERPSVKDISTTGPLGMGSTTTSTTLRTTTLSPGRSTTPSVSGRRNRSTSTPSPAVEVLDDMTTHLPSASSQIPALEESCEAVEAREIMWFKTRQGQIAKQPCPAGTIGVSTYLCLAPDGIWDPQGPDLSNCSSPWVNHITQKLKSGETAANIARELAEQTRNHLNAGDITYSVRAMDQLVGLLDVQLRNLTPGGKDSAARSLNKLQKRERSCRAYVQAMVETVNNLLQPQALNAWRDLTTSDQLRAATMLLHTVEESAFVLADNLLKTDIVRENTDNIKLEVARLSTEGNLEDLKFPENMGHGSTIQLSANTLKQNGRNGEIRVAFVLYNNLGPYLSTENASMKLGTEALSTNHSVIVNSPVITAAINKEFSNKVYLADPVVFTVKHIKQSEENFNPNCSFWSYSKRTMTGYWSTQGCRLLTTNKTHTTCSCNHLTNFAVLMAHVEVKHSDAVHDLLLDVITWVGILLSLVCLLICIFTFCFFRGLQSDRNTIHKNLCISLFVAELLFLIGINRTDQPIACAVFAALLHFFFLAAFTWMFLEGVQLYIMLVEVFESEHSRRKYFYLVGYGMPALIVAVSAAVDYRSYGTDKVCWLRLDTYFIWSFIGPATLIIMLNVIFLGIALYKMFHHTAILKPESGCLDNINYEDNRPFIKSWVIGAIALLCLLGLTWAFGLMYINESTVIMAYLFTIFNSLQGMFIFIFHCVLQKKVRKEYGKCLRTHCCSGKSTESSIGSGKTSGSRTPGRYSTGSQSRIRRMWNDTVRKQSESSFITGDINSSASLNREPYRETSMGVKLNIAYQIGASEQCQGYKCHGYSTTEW

[2] = target: T2, Latrophilin-3 ADHD-related variant R465S (Lphn3^R465S) (human)
T2 chain: T1 chain with S247A, R465S

B1: soluble FLRT3 extracellular domain fused to the constant fraction of human IgG (FLRT3^ECD-Fc) (Fc fusion)
chain: KSCPSVCRCDAGFIYCNDRFLTSIPTGIPEDATTLYLQNNQINNAGIPSDLKNLLKVERIYLYHNSLDEFPTNLPKYVKELHLQENNIRTITYDSLSKIPYLEELHLDDNSVSAVSIEEGAFRDSNYLRLLFLSRNHLSTIPWGLPRTIEELRLDDNRISTISSPSLQGLTSLKRLVLDGNLLNNHGLGDKVFFNLVNLTELSLVRNSLTAAPVNLPGTNLRKLYLQDNHINRVPPNAFSYLRQLYRLDMSNNNLSNLPQGIFDDLDNITQLILRNNPWYCGCKMKWVRDWLQSLPVKVNVRGLMCQAPEKVRGMAIKDLNAELFDCKDSGIVSTIQITTAIPNTVYPAQGQWPAPVTKQPDIKNPKLTKDHQTTGSPSRKTITITVKSVTSDTIHISWKLALPMTALRLSWLKLGHSPAFGSITETIVTGERSEYLVTALEPDSPYKVCMVPMETSNLYLFDETPVCIETETAPLRMYNPTTTLNREQEKEPYKNPNLP
modifications: HA/Flag epitopes left out; isoform assumed; signal peptide removed and GPS autoproteolysis expected
Work on B1 yielded a Kd [1] of 1.22 nM and a Kd [2] of 1.02 nM.
